Our source for the cooperativity ratio (KdII/KdIV) and binding signal values is patent US20020081719.

One series concerns the target PPARγ/RXR heterodimer (UniProt P37231+P19793). Nature of the series: EMSA. To be noted: 0.5 mM ZnCl2, 4 C. (In general: A gel shift assay detects complexes by their altered migration in electrophoresis.)
The next series has as its target PPARα/RXR heterodimer (UniProt Q07869+P19793). Nature of the series: EMSA. The note with it: cooperativity ratio; 0.5 mM ZnCl2, 4 C.
Setting [1] is: cooperativity ratio, dimer and tetramer complexes.

Chain of PPARγ/RXR heterodimer (P37231 whole entry, chain 1 of 2): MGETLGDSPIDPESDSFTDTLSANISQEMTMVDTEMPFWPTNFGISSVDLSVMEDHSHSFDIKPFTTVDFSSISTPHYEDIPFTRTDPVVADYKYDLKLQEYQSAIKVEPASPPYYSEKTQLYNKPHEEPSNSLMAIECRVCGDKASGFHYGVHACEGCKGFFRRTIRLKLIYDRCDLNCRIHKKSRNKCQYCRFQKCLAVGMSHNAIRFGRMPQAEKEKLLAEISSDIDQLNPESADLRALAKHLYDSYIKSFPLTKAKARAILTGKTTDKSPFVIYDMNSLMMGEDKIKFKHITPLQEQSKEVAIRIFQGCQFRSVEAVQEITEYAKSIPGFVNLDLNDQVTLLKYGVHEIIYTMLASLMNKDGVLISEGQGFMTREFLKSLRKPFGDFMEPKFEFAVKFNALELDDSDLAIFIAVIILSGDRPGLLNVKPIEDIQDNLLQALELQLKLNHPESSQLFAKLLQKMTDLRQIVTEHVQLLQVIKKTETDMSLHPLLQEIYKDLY
Chain of PPARγ/RXR heterodimer (P19793 whole entry, chain 2 of 2): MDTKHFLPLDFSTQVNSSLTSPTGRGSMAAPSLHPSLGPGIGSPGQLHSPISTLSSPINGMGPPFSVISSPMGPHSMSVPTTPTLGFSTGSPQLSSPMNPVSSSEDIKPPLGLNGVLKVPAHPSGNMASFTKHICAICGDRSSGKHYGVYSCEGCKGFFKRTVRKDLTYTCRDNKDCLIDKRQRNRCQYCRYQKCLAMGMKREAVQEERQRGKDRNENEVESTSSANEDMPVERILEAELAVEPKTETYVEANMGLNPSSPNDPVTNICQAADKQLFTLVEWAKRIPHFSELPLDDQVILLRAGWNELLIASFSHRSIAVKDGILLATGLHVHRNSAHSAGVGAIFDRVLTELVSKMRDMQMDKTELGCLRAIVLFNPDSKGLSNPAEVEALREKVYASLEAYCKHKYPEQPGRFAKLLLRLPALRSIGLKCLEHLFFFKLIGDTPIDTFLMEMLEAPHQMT
Chain of PPARα/RXR heterodimer (Q07869 whole entry, chain 1 of 2): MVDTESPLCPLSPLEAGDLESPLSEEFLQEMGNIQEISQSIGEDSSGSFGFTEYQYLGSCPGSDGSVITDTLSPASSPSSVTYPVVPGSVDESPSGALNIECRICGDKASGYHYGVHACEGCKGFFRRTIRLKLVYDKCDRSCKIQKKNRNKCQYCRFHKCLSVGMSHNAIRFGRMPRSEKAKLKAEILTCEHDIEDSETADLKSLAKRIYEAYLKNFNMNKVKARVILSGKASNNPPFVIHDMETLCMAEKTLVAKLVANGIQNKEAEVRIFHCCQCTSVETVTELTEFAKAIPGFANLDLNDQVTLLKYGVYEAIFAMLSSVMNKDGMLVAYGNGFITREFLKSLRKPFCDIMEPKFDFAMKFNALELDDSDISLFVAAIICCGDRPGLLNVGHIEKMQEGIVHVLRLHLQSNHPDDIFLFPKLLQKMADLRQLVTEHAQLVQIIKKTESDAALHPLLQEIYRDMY
Chain of PPARα/RXR heterodimer (P19793 whole entry, chain 2 of 2): as the sequence (P19793 whole entry, chain 2 of 2) above

Turning to “CAAAACTAGGTCAAAGGTCAAAACTAGGTCAAAGGTCA (double strand) [(DR1)2 17]”, the cooperativity ratio (KdII/KdIV) in the series with PPARγ/RXR heterodimer (setting [1]) stood at 9 KdII/KdIV. In addition, the binding signal in the series with PPARα/RXR heterodimer worked out at 7 KdII/KdIV.
On to “CAAAACTAGGTCAAAGGTCATCAAAACTAGGTCAAAGGTCA (double strand) [(DR1)2 21]”, for which the cooperativity ratio (KdII/KdIV) in the series with PPARγ/RXR heterodimer (cooperativity ratio 34 +/- 11, 80% tetrameric) worked out at 34 KdII/KdIV. Besides, in the series with PPARα/RXR heterodimer, the binding signal came to 11.2 KdII/KdIV.
For “CAAAACTAGGTCAAAGGTCATGTCTTTAGGCCCAAAACTAGGTCAAAGGTCA (double strand) [(DR1)2 31]”, the cooperativity ratio (KdII/KdIV) with PPARγ/RXR heterodimer (setting [1]) turned out to be 12.6 KdII/KdIV. The binding signal with PPARα/RXR heterodimer turned out to be 11.6 KdII/KdIV.
